The chains are these.
B1: SI-35E18 (460C3-L1H1-scFv × PL230C6-Fab × 323H7-H4L1-scFv × 284A10-H1L1-scFv) (bispecific antibody, human IgG1, kappa)
heavy: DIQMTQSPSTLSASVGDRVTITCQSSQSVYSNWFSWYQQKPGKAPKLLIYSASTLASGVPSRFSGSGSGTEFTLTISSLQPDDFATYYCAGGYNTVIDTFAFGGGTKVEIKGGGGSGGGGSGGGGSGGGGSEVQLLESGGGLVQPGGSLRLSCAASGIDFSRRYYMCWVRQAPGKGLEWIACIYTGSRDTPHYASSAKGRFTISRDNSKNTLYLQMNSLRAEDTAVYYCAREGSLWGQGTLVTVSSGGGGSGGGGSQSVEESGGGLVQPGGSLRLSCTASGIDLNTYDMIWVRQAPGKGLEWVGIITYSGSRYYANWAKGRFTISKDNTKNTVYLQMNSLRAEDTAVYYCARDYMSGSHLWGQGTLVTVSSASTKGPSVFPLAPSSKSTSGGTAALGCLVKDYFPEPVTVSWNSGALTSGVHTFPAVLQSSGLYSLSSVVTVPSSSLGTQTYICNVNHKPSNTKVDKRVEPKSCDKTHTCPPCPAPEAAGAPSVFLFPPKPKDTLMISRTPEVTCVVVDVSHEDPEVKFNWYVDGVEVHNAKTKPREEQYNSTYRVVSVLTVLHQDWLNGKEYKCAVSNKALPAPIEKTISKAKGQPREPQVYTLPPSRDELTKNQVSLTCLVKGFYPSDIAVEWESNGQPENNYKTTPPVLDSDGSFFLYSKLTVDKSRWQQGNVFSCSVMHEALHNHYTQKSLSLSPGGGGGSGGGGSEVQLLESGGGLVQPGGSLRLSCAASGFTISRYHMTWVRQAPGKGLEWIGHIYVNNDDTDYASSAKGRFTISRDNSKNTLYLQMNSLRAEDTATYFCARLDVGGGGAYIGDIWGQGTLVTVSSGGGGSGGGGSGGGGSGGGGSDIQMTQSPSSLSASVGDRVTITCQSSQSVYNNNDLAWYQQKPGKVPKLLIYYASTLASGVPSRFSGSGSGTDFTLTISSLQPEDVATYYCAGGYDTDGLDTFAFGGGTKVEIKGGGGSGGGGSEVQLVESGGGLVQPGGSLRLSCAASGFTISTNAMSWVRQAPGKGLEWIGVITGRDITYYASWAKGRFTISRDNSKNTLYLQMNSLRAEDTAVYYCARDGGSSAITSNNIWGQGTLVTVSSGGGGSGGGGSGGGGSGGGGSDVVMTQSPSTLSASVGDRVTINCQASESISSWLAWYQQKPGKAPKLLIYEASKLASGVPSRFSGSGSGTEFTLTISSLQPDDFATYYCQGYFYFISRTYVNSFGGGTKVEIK
light: AYDMTQSPSSVSASVGDRVTIKCQASEDIYSFLAWYQQKPGKAPKLLIHSASSLASGVPSRFSGSGSGTDFTLTISSLQPEDFATYYCQQGYGKNNVDNAFGGGTKVEIKRTVAAPSVFIFPPSDEQLKSGTASVVCLLNNFYPREAKVQWKVDNALQSGNSQESVTEQDSKDSTYSLSSTLTLSKADYEKHKVYACEVTHQGLSSPVTKSFNRGEC
notes: Tetra-specific GNC antibody (41BB x PD-L1 x ROR1 x CD3), IgG1 null2 Fc
B2: SI-35E21 (bispecific antibody, not shown: small tags and cut ends)
heavy (part 1 of 7): DIQMTQSPSTLSASVGDRVTITCQSSQSVYSNWFSWYQQKPGKAPKLLIYSASTLASGVPSRFSGSGSGTEFTLTISSLQPDDFATYYCAGGYNTVIDTFAFGGGTKVEIK
heavy (part 2 of 7): EVQLLESGGGLVQPGGSLRLSCAASGIDFSRRYYMCWVRQAPGKGLEWIACIYTGSRDTPHYASSAKGRFTISRDNSKNTLYLQMNSLRAEDTAVYYCAREGSLWGQGTLVTVSS
heavy (part 3 of 7): not shown
heavy (part 4 of 7): EVQLVESGGGLVQPGGSLRLSCTASGFSLSSYAMSWVRQAPGRGLEWIGIIYASGSTYYASSAKGRFTISKDNTKNTVDLQMNSLRAEDTAVYYCARIYDGMDLWGQGTLVTVSS
heavy (part 5 of 7): DIQMTQSPSSLSASVGDRVTINCQASQNIYSYLSWYQQKPGKVPKRLIYLASTLASGVPSRFSGSGSGTDYTLTISSLQPEDVATYYCQSNYNGNYGFGGGTKVEIK
heavy (part 6 of 7): EVQLVESGGGLVQPGGSLRLSCAASGFTISTNAMSWVRQAPGKGLEWIGVITGRDITYYASWAKGRFTISRDNSKNTLYLQMNSLRAEDTAVYYCARDGGSSAITSNNIWGQGTLVTVSS
heavy (part 7 of 7): DVVMTQSPSTLSASVGDRVTINCQASESISSWLAWYQQKPGKAPKLLIYEASKLASGVPSRFSGSGSGTEFTLTISSLQPDDFATYYCQGYFYFISRTYVNSFGGGTKVEIK
light: B1 light
notes: Tetra-specific; the listing has only VHv3/VLv2
B3: SI-35E23 (bispecific antibody, not shown: small tags and cut ends)
heavy (part 1 of 7): DVVMTQSPSSVSASVGDRVTITCQASQNIRTYLSWYQQKPGKAPKLLIYAAANLASGVPSRFSGSGSGTDFTLTISDLEPGDAATYYCQSTYLGTDYVGGAFGGGTKVEIK
heavy (part 2 of 7): RSLVESGGGLVQPGGSLRLSCTASGFTISSYHMQWVRQAPGKGLEYIGTISSGGNVYYASSARGRFTISRPSSKNTVDLQMNSLRAEDTAVYYCARDSGYSDPMWGQGTLVTVSS
heavy (part 3 of 7): not shown
heavy (part 4 of 7): B2 heavy (part 4 of 7)
heavy (part 5 of 7): B2 heavy (part 5 of 7)
heavy (part 6 of 7): B2 heavy (part 6 of 7)
heavy (part 7 of 7): B2 heavy (part 7 of 7)
light: B1 light
notes: as for B2
B4: SI-27E13 (bispecific antibody, not shown: small tags and cut ends)
heavy (part 1 of 7): B2 heavy (part 1 of 7)
heavy (part 2 of 7): B2 heavy (part 2 of 7)
heavy (part 3 of 7): not shown
heavy (part 4 of 7): EVKLDETGGGLVQPGRPMKLSCVASGFTFSDYWMNWVRQSPEKGLEWVAQIRNKPYNYETYYSDSVKGRFTISRDDSKSSVYLQMNNLRVEDMGIYYCTGSYYGMDYWGQGTSVTVSS
heavy (part 5 of 7): DVVMTQTPLSLPVSLGDQASISCRSSQSLVHSNGNTYLRWYLQKPGQSPKVLIYKVSNRFSGVPDRFSGSGSGTDFTLKISRVEAEDLGVYFCSQSTHVPWTFGGGTKLEIK
heavy (part 6 of 7): B2 heavy (part 6 of 7) with F27I, T28D, I29L, T31S, T105N, N107K
heavy (part 7 of 7): B2 heavy (part 7 of 7) with V2I, V3Q, N22T, S102A
light: B1 light
notes: the listing has only VHv3/VLv2
B5: SI-35E2 (bispecific antibody, not shown: small tags and cut ends)
heavy (part 1 of 7): B2 heavy (part 1 of 7)
heavy (part 2 of 7): B2 heavy (part 2 of 7)
heavy (part 3 of 7): not shown
heavy (part 4 of 7): QSLVESGGGLVQPGGSLRLSCTASGFSLSRYYMTWVRQAPGKGLEWIGTIYTSGSTWYASWTKGRFTISKDNTKNTVDLQMNSLRAEDTAVYYCARSYYGGDKTGLGIWGQGTLVTVSS
heavy (part 5 of 7): DIQMTQSPSTLSASVGDRVTITCQASQSIDSWLSWYQQKPGKAPKLLIYQASTLASGVPSRFSGSGSGTEFTLTISSLQPDDFATYYCQSAYGVSGTSSYLYTFGGGTKVEIK
heavy (part 6 of 7): B4 heavy (part 4 of 7)
heavy (part 7 of 7): B4 heavy (part 5 of 7)
light: B1 light
notes: as for B4
B6: SI-35E22 (bispecific antibody, not shown: small tags and cut ends)
heavy (part 1 of 7): ALVMTQSPSTLSASVGDRVTINCQASEDIDTYLAWYQQKPGKAPKLLIFYASDLASGVPSRFSGSGSGTEFTLTISSLQPDDFATYYCQGGYYTSSADTRGAFGGGTKVEIK
heavy (part 2 of 7): QSLVESGGGLVQPGGSLRLSCAASGFSFSSNYWICWVRQAPGKGLEWIACIYVGSSGDTYYASSAKGRFTISRDNSKNTLYLQMNSLRAEDTAVYYCARDSSSYYMFNLWGQGTLVTVSS
heavy (part 3 of 7): not shown
heavy (part 4 of 7): B2 heavy (part 4 of 7)
heavy (part 5 of 7): B2 heavy (part 5 of 7)
heavy (part 6 of 7): B2 heavy (part 6 of 7)
heavy (part 7 of 7): B2 heavy (part 7 of 7)
light: B1 light
notes: as for B2
B7: SI-27E15 (bispecific antibody, not shown: small tags and cut ends)
heavy (part 1 of 7): B2 heavy (part 1 of 7)
heavy (part 2 of 7): B2 heavy (part 2 of 7)
heavy (part 3 of 7): not shown
heavy (part 4 of 7): B5 heavy (part 4 of 7)
heavy (part 5 of 7): B5 heavy (part 5 of 7)
heavy (part 6 of 7): B2 heavy (part 6 of 7) with F27I, T28D, I29L, T31S, T105N, N107K
heavy (part 7 of 7): B2 heavy (part 7 of 7) with V2I, V3Q, N22T, S102A
light: DVVMTQTPLSLPVSLGDQASISCRSSQSLVHSNGNTYLRWYLQKPGQSPKVLIYKVSNRFSGVPDRFSGSGSGTDFTLKISRVEAEDLGVYFCSQSTHVPWTFGGGTKLEIKRTVAAPSVFIFPPSDEQLKSGTASVVCLLNNFYPREAKVQWKVDNALQSGNSQESVTEQDSKDSTYSLSSTLTLSKADYEKHKVYACEVTHQGLSSPVTKSFNRGEC
notes: also called control SI-27E15
B8: SI-27E12 (bispecific antibody, not shown: small tags and cut ends)
heavy (part 1 of 7): B4 heavy (part 5 of 7)
heavy (part 2 of 7): B4 heavy (part 4 of 7)
heavy (part 3 of 7): not shown
heavy (part 4 of 7): B5 heavy (part 4 of 7)
heavy (part 5 of 7): B5 heavy (part 5 of 7)
heavy (part 6 of 7): B2 heavy (part 6 of 7) with F27I, T28D, I29L, T31S, T105N, N107K
heavy (part 7 of 7): B2 heavy (part 7 of 7) with V2I, V3Q, N22T, S102A
light: B1 light
notes: the listing has only VHv3/VLv2; also called control SI-27E12

Positions count from the first letter of the chain named.

T2 sequence (Q9NZQ7 19-290): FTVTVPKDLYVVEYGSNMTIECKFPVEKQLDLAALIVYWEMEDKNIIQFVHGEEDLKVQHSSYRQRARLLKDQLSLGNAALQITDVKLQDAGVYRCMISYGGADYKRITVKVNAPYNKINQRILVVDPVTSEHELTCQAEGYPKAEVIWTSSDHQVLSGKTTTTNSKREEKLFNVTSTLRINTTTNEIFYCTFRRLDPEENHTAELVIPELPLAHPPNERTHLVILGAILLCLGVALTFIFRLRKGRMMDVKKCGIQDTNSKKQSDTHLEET
T1 sequence (Q07011 24-255): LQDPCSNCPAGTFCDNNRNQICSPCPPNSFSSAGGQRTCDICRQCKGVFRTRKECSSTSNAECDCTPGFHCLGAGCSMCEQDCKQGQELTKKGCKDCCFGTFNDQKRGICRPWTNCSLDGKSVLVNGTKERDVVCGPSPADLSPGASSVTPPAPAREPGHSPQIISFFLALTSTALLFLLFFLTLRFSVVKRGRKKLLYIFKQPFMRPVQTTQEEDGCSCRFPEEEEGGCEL

The first test addresses T1, human 41BB (human, UniProt Q07011 24-255).
T1 construct: whole, on cells; also called 41BB expressing CHO cells; human 41BB transfected CHO cells
Description: FACS on human 41BB transfected CHO cells. As to the method:
(§1) Example 2: FACS Analysis of Tetra-Specific GNC Antibody Binding to Human 41BB Transfected CHO Cells The tetra-specific GNC antibodies listed in TABLEs 3 and 4 were tested for binding to Chinese hamster ovary cells (CHO) cells stably expressing a full-length human ROR1. Antibodies were prepared at 2× final concentration and titrated 1:5 across 3 wells of a 96 well plate in 50 ul of PBS/2% FBS and then 5,000 ROR1-CHO cells in 50 ul PBS/2% FBS were added. This mixture was incubated for 30 minutes on ice, washed once with 200 ul PBS/2% FBS, and then the secondary antibody PE Goat anti-Human IgG Fc at 1:1000 dilution of stock was added, and this mixture was incubated for 30 minutes on ice. Cells were washed 2×200 ul PBS/2% FBS, resuspended in 50 ul PBS/2% FBS and analyzed on a BD LSRFORTESSA and the binding profile is shown in FIG. 5. All of the tetra-specific GNC antibodies except for the control SI-27E12 contain a 41BB binding domain, 460C3, 420H5, or 466F6 and bound to 41BB expressing CHO cells with varying intensity.
B1: the binding result is on record as “binds”.
Still for that read-out and setting: as for B2, the entry is “binds”; as for B3, “binds”.
Take B4: the binding result is on record as “binds”.
As to B5, the binding result is on record as “binds”.
On to B6, for which the binding result is given as “binds”.
Same read-out and setting: as for B7, the entry is “binds”.

The next test has as its target T2, human PD-L1 (human, UniProt Q9NZQ7 19-290).
T2 construct: whole, on cells; also called PDL1 expressing CHO cells; human PD-L1 transfected CHO cells
In words: FACS on human PD-L1 transfected CHO cells. As to the method: as §1, with “3:” for “2:”, “PDL1” for “41BB”, “[…]” for “a full-length”, “6.” for “5. All of the tetra-specific GNC antibodies except for the control SI-27E12 contain a 41BB binding domain, 460C3, 420H5, or 466F6 and bound to 41BB expressing CHO cells with varying intensity.”
In the case of B1, the binding result was “binds”.
Turning to B2, the binding result is “binds”.
Still for that read-out and setting: as for B8, the entry is “binds”; as for B3, “binds”.
On the same count and under the same terms, as for B4, the entry is “binds”; as for B5, “binds”; as for B6, “binds”.

The next test deals with T3, full-length human ROR1 (human, UniProt Q01973 30-937).
T3 construct: whole, on cells; also called human ROR1 transfected CHO cells; ROR1-CHO cells
T3 sequence (Q01973 30-937): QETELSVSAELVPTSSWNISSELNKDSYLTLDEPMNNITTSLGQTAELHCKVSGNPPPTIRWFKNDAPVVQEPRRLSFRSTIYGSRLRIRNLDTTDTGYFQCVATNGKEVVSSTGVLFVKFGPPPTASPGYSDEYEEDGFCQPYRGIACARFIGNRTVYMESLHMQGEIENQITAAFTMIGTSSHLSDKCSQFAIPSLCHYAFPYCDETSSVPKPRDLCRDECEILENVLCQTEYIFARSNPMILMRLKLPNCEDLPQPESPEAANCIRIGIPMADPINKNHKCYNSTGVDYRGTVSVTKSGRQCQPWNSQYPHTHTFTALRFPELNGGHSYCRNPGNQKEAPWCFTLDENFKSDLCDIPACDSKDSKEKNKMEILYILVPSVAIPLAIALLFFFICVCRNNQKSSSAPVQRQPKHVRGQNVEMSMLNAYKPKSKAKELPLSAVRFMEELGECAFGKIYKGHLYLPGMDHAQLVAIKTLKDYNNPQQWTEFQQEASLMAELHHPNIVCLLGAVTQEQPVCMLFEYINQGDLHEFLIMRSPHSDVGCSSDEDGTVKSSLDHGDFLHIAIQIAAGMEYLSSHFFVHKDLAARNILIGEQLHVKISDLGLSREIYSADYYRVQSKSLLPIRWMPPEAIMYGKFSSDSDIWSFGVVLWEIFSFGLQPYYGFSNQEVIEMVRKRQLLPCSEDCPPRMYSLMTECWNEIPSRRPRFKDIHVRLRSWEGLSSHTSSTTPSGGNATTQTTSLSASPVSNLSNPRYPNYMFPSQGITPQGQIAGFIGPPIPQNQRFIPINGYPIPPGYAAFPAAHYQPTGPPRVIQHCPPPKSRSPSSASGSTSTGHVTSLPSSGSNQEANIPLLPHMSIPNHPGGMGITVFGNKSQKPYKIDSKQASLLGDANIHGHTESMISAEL
Description: FACS on CHO cells stably expressing full-length human ROR1. Here is the method: as §1, with “Example 1:” for “Example 2:”, “Tetra-Specific Specific” for “Tetra-Specific GNC”, “Human ROR1” for “Human 41BB”, “FIG. 4.” for “FIG. 5. All of the tetra-specific GNC antibodies except for the control SI-27E12 contain a 41BB binding domain, 460C3, 420H5, or 466F6 and bound to 41BB expressing CHO cells with varying intensity.”
Turning to B1, the binding result is listed as “binds”.
On the same count and under the same terms, the entry for B2 is “binds”; for B3 it is “binds”; for B6 it is “binds”.

Values taken from patent US12384850 (SYSTIMMUNE, dated 2025).
